T1: CTLA-4-hFc (immunogen A; hFc-labeled CTLA-4 extracellular domain protein) (human, UniProt P16410 36-161)
T1 construct: range 36-161; Made in HEK293 cells, purified on protein A; also called CLTA-4-hFc; CTLA-4 protein; not shown: human IgG Fc fragment (hFc) of the pCpC vector
T1 sequence (looked up): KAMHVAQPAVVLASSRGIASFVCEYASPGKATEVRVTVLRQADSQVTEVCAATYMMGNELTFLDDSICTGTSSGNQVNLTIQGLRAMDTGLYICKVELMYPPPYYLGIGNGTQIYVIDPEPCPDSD

T2: human CTLA-4 (Y201V), full length, on transfected cells (human, UniProt P16410 36-223)
T2 construct: whole, on cells; also called hCTLA-4; HEK293-hCTLA-4 (Y201V)
T2 sequence (looked up): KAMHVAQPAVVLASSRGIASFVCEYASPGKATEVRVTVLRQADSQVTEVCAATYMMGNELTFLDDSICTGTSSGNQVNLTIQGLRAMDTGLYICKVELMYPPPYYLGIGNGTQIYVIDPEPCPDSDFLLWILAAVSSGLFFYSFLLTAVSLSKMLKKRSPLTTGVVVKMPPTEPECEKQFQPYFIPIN

B1: 31C12F3 fully human CTLA-4 antibody (human IgG1, kappa) (antibody, V domains shown)
VH: QVQLVESGGGVVQPGRSLILSCAASGFTFSSYGMHWVRQAPGKGLEWVAVVWYDGSNKYYADSVKGRFTISRDNSKNTLYLQMSSLRAEDTAVYYCARGGIVVPGLFEYWGQGSLVTVSS
VL: DIQMTQSPSSLSASVGDRVAITCRTSQSISNLLNWYQQKPGKAPELLIYAPSSFQSGVPSRFRGSGSGTDFTLTISSLQPEDFATYYCQQSYSTPFTFGPGTKVDIK
notes: also called mAb010
B2: 40C4C6 fully human CTLA-4 antibody (human IgG1, kappa) (antibody, V domains shown)
VH: QVQLVESGGGVVQPGRSLRLSCAASGFTFSSYGMHWVRQAPGKGLEWVAVIWYDGRNKYYADSVKGRFTISRDNSKNTLYLQMNSLRAEDTAVYYCARASGSYSYYFDYWGQGTLVTVSS
VL: DIQMTQSPSSLSASVGGRVTITCRASQSISSFLNWYQHELGKAPKLLIYGASSLQSGVPSRFSGSGSGTDFTLTISSLQPEDFATYYCQQTYSTPFTFGPGTKVDIK
notes: also called mAb09; mAb009
B3: 97A8D1 fully human CTLA-4 antibody (human IgG1, kappa) (antibody, V domains shown)
VH: QVQLVESGGGVVQPGRSLRLSCVASGFTFNNYGMNWVRQAPGKGLEWVAVIWYGGRNKFYADSVKGRFTISRDNSKNTLYLEMNSLRAEDTAVYYCARADWGGWFDPWGQGTLVTVSS
VL: EIVLTQSPGTLSLSPGERATLSCRASQSVSSTYLAWYQQKPGQAPRLLIHGAFSRATGIPDRFSGSGSGPDFTLTISRLEPEDFAVYYCQQYGTSPFTFGPGTKVDIK
notes: also called mAb49; mAb049

What was measured:
[1] = biological target: T1, CTLA-4-hFc (immunogen A; hFc-labeled …); test: receptor-ligand blocking assay: CTLA-4 protein, antibody titrated, blocked ligand B7.1, inhibition (%)
Description: (§1) CTLA-4 extracellular domain protein (CTLA-4-hFc) was diluted with PBS to a final concentration of 1.0 μg/mL, and then added to a 96-well ELISA plate as 100 μl per well. The plate was covered with a plastic film and incubated overnight at 4° C. The plate was washed twice with plate washing solution [PBS containing 0.01% (v/v) Tween 20] on the next day, and added with blocking solution [PBS containing 0.01% (v/v) Tween 20 and 1% (w/w) BSA] and blocked at room temperature for 2 hours. […] After 2 hours, the plate was washed 3 times with a plate washing solution [PBS containing 0.01% (v/v) Tween 20]. HRP (horseradish peroxidase) labeled avidin diluent (purchased from Sigma) was added 100 microliters per well, and after the plate was incubated for 2 hours at 37° C., it was washed with plate washing solution [PBS containing 0.01% (v/v) Tween 20] for 3 times. […] TMB substrate was added to each well. After incubated at room temperature for 30 minutes, the plate was added with […] stop solution (1.0N HCl) to each well. An ELISA plate reader (SpectraMax 384plus, Molecular Device) was used to read the A450 nm value.

[2] = biological target: T1, CTLA-4-hFc (immunogen A; hFc-labeled …); test: blocking assay, CTLA-4 protein, competitor B7.1
Description: as §1

[3] = biological target: T2, human CTLA-4 (Y201V), full length, on …; test: FACS, human CTLA-4 expressing cells
[4] = biological target: T3, monkey CTLA-4, full length, on transfected HEK293 cells (monkey); test: FACS, monkey CTLA-4 expressing cells
T3 construct: whole, on cells; also called cCTLA-4; HEK293-cCTLA-4
Description: The pIRES plasmid with the monkey-derived CTLA-4 full-length gene was transfected into the HEK293 cell line to construct a HEK293 stable cell line containing monkey CTLA-4 (herein referred to as HEK293-cCTLA-4 stable cell line), wherein the database accession number of the monkey CTLA-4 nucleotide sequence is XM_005574014.1. The HEK293-hCTLA-4 stable cell line and HEK293-cCTLA-4 stable cell line were expanded in a T-75 cell culture flask to a 90% confluence. The medium was aspirated, and the cells were washed with HBSS buffer (Hanks Balanced Salt Solution, purchased from Invitrogen) twice, then treated with an enzyme-free cell dissociation fluid (Versene solution, purchased from Life technology) and the cells were collected. The cells were washed with HBSS buffer twice. After counted, the cells were diluted with HBSS buffer to 2×10⁶ cells per ml, added with 1% goat serum blocking solution, wherein the percentage was the mass percantage. Cells were incubated on ice for 30 minutes, then washed twice with HBSS buffer by centrifugation. The collected cells were suspended in the FACS buffer (HBSS containing 1% BSA, wherein the percentage was the mass percantage) to 2×10⁶ cells/ml, added as 100 microliters per well to a 96-well FACS reaction plate, added with 100 microliters per well of the purified CTLA-4 antibody sample to be tested, incubated on ice for 2 hours. The plate was washed twice with the FACS buffer by centrifugation, added with 100 microliters of fluorescent (Alexa 488)-labeled secondary antibodies (purchased from Invitrogen) per well, and incubated on ice for 1 hour. The plate was washed 3 times with FACS buffer by centrifugation, added with 100 μl fixative solution [4% (v/v) Paraformaldehyde] per well to suspend the cells. 10 minutes later, it was washed 2 times with FACS buffer by centrifugation. The cells were suspended with 100 microliters of FACS buffer, FACS (FACS Calibur, purchased from BD) was used for detection and the results were analyzed.

[5] = biological target: T1, CTLA-4-hFc (immunogen A; hFc-labeled …); test: blocking assay, CTLA-4 protein, competitor B7.2
Description: as §1

Row | Binder | % Block at 0.000128 nM [2] [%] | % Block at 0.0128 nM [2] [%] | % Block at 0.064 nM [2] [%] | % Block at 0.32 nM [2] [%] | % Block at 1.6 nM [2] [%] | % Block at 8 nM [2] [%] | % Block at 40 nM [2] [%] | % Block at 200 nM [2] [%] | MFI at 0.000128 nM [3] | MFI at 0.0128 nM [3] | MFI at 0.064 nM [3] | MFI at 0.32 nM [3] | MFI at 1.6 nM [3] | MFI at 8 nM [3] | MFI at 40 nM [3] | MFI at 200 nM [3] | MFI at 0.000128 nM [4] | MFI at 0.0128 nM [4] | MFI at 0.064 nM [4] | MFI at 0.32 nM [4] | further results
1 | B1 | 0 | 5.1 | 30.4 | 74.5 | 95.9 | 98.5 | 99.1 | 99.3 | 3 | 34 | 96 | 260 | 547 | 756 | 941 | 998 | 2 | 34 | 98 | 261 | IC50 (read off the curve) [1]: ~1 nM; MFI at 1.6 nM [4]: 455; MFI at 8 nM [4]: 654; MFI at 40 nM [4]: 712; MFI at 200 nM [4]: 668; % Block at 0.000128 nM [5]: 0%; % Block at 0.0128 nM [5]: 25.6%; % Block at 0.064 nM [5]: 48.1%; % Block at 0.32 nM [5]: 84.4%; % Block at 1.6 nM [5]: 99%; % Block at 8 nM [5]: 99.1%; % Block at 40 nM [5]: 99.1%; % Block at 200 nM [5]: 99.2%
2 | B2 | 0 | 9.3 | 35 | 82.1 | 98.1 | 99.2 | 99.4 | 99.4 | 3 | 24 | 74 | 233 | 553 | 795 | 967 | 963 | 2 | 23 | 69 | 219 | IC50 (read off the curve) [1]: ~1 nM; MFI at 1.6 nM [4]: 421; MFI at 8 nM [4]: 619; MFI at 40 nM [4]: 626; MFI at 200 nM [4]: 643; % Block at 0.000128 nM [5]: 0%; % Block at 0.0128 nM [5]: 30%; % Block at 0.064 nM [5]: 52.4%; % Block at 0.32 nM [5]: 89.2%; % Block at 1.6 nM [5]: 99.1%; % Block at 8 nM [5]: 99.1%; % Block at 40 nM [5]: 99.1%; % Block at 200 nM [5]: 99.1%
3 | B3 | 0 | 6.1 | 28.7 | 67.8 | 90.6 | 95.2 | 97.2 | 98.4 | 3 | 22 | 66 | 196 | 580 | 919 | 1020 | 1020 | 2 | 23 | 67 | 225 | MFI at 1.6 nM [4]: 513; MFI at 8 nM [4]: 754; MFI at 40 nM [4]: 910; MFI at 200 nM [4]: 831; % Block at 0.000128 nM [5]: 0%; % Block at 0.0128 nM [5]: 33%; % Block at 0.064 nM [5]: 48.4%; % Block at 0.32 nM [5]: 84.1%; % Block at 1.6 nM [5]: 99%; % Block at 8 nM [5]: 99.2%; % Block at 40 nM [5]: 99.2%; % Block at 200 nM [5]: 99.2%

Source: patent US20210324080A1 (JIANGSU HUAIYU PHARMACEUTICAL, published 2021)
